Common to all, as to assay: cell-based or functional assay
Assay [1] addresses HIV-1 MGRM-AE-007 Env (pseudovirus) (HIV-1).
Assay [2] concerns the target HIV-1 Env of isolate MGRM-D-013 (clade D pseudovirus) (HIV-1).
The target of assay [3] is HIV-1 envelope glycoprotein (Env) of isolate LAVI_C22 (HIV-1).
The target of assay [4] is HIV-1 Env of pseudovirus MGRM-G-019 (HIV-1).
The target in assay [5] is HIV-1 Env of isolate VLGCB3, clade B (HIV-1).
The target of assay [6] is HIV-1 Env of isolate 92UG005 (clade D pseudovirus) (HIV-1).
The target of assay [7] is HIV-1 Env of isolate MGRM-D-016 (clade D pseudovirus) (HIV-1).
Assay [8] addresses HIV-1 Env of isolate MGRM-D-018 (clade D pseudovirus) (HIV-1).
Assay [9] deals with HIV-1 Env of isolate MGRM-A-003 (clade A pseudovirus) (HIV-1).
Assay [10] deals with HIV-1 Env of isolate MGRM-A-001 (clade A pseudovirus) (HIV-1).
Assay [11] deals with HIV-1 Env of pseudovirus MGRM-G-017 (HIV-1).
The target in assay [12] is HIV-1 envelope glycoprotein (Env) of isolate MG RM-A-005, subtype A (HIV-1).
The target of assay [13] is HIV-1 envelope glycoprotein (Env) of isolate 92WR009, subtype A (HIV-1).
In assay [14] the target is HIV-1 envelope glycoprotein (Env) of isolate 93TH305, on pseudovirus (HIV-1).
Assay [15] deals with HIV-1 92UG005 envelope protein (Env) on pseudovirus (HIV-1).
The target in assay [16] is HIV-1 envelope glycoprotein (Env) of isolate 92WR024, subtype A (HIV-1).
The target in assay [17] is HIV-1 envelope glycoprotein (Env) of isolate 92WR020, subtype A (HIV-1).
The target of assay [18] is HIV-1 envelope glycoprotein (Env) of isolate THRO.18, on pseudovirus (HIV-1).
The target of assay [19] is HIV-1 JR-CSF Env S334A (HIV-1 isolate JR-CSF) (UniProt P20871).
Assay [20] concerns the target HIV-1 Env of isolate MGRM-AG-006 (pseudovirus) (HIV-1).
For assay [21], the target named is HIV-1 MGRM-D-018 envelope protein (Env) on pseudovirus (HIV-1).
Assay [22] concerns the target HIV-1 MGRM-C-026 Env (HIV-1).
Assay [23] addresses HIV-1 Env of isolate MGRM-F1-017 (pseudovirus) (HIV-1).
Assay [24] concerns the target HIV-1 92UG024 Env (HIV-1).
In assay [25] the target is HIV-1 MGRM-D-018 Env (HIV-1).
Assay [26] has as its target HIV-1 envelope glycoprotein (Env) of isolate 92UG037, subtype A (HIV-1).
Assay [27] has as its target HIV-1 JR-CSF Env N301A (HIV-1 (isolate JR-CSF, clade B)) (UniProt P20871).
Assay [28] has as its target HIV-1 Env of isolate MGRM-D-005 (pseudovirus) (HIV-1).
For assay [29], the target named is HIV-1 Env of isolate MGRM-AG-013 (subtype AG) (HIV-1).
The target of assay [30] is HIV-1 Env of isolate MGRM-A-012 (subtype A) (HIV-1).
Assay [31] concerns the target HIV-1 Env of isolate MGRM-F1-017 (HIV-1).
The target in assay [32] is HIV-1 Env of isolate MGRM-F1-004 (HIV-1).
Assay [33] addresses HIV-1 Env of isolate MGRM-F1-014 (HIV-1).
Assay [34] has as its target HIV-1 Env of isolate 92WR026 (pseudovirus) (HIV-1).
Assay [35] addresses HIV-1 Env of isolate MGRM-D-024 (HIV-1).
For assay [36], the target named is HIV-1 Env of isolate MGRM-AG-006 (subtype AG) (HIV-1).
The target in assay [37] is HIV-1 Env of pseudovirus isolate MGRM-C-023 (clade C) (HIV-1).

Sequence of 1443_C16 (PG16) (TCN-116) (antibody) (VH): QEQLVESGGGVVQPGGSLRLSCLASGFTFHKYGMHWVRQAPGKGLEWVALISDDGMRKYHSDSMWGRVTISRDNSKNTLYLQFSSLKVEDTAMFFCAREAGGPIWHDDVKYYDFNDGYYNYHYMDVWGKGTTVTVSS
Sequence of 1443_C16 (PG16) (TCN-116) (antibody) (VL): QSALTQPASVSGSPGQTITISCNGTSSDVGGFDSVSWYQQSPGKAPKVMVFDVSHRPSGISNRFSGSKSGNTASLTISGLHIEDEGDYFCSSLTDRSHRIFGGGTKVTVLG

Consider 2G12 (antibody), for which the IC50 (µg/ml), pseudovirus neutralization is above 50 µg/mL in assay [1]; above 50 µg/mL in assay [3]; 31 µg/mL in assay [4]; 7.9 µg/mL in [5]; above 50 µg/mL in assay [9]; above 50 µg/mL in assay [10]. Further, in assay [11], the IC50 (µg/ml), pseudovirus neutralization was above 50 µg/mL. Moreover, the IC50, pseudovirus neutralization in [2] was above 50 µg/mL; in [6], above 50 µg/mL; in [7], above 50 µg/mL; in assay [8] it was 0.12 µg/mL.
As for 4858_P08 (PGT-123) (antibody), the IC50, pseudovirus neutralization is above 50 µg/mL in [12]; 15.7 µg/mL in assay [13]; 0.008 µg/mL in [14]; above 50 µg/mL in assay [16]; 0.002 µg/mL in assay [17]; above 50 µg/mL in assay [18]. Moreover, the IC50, pseudovirus neutralization is 0.0031 µg/mL in assay [22], above 10 µg/mL in assay [24], 0.0047 µg/mL in assay [25] and 0.023 µg/mL in assay [26]. Besides, the values for the IC50 (ug/mL), pseudovirus neutralization in [15] and in assay [21] were 2.49 µg/mL and 0.0047 µg/mL, respectively. The Fold IC50 increase relative to wild-type in [19] is above 50 fold. Also, the IC50 (µg/mL), pseudovirus neutralization in assay [20] was 0.014 µg/mL; in assay [23], above 50 µg/mL.
Regarding b12 (antibody), the IC50 (µg/ml), pseudovirus neutralization is above 50 µg/mL in assay [1]; 7.64 µg/mL in assay [3]; 3.77 µg/mL in assay [4]; 0.15 µg/mL in assay [5]; above 50 µg/mL in assay [9]; above 50 µg/mL in assay [10]. For the same substance, in assay [11], the IC50 (µg/ml), pseudovirus neutralization was above 50 µg/mL. Moreover, the IC50, pseudovirus neutralization in [2] was above 50 µg/mL; in assay [6], above 50 µg/mL; in assay [7], 1.12 µg/mL; in assay [8] it was 1.39 µg/mL.
Turning to 1495_C14 (PGC14) (antibody), the IC50 (µg/ml), pseudovirus neutralization in assay [1] is above 50 µg/mL; in assay [3] it was 25 µg/mL; in assay [4], above 50 µg/mL; in assay [5], 21 µg/mL; in assay [9], above 50 µg/mL; in assay [10], above 50 µg/mL. In assay [11], this substance showed an IC50 (µg/ml), pseudovirus neutralization above 50 µg/mL. Further, the IC50, pseudovirus neutralization in assay [2], in assay [6], in assay [7] and in [8] was above 50 µg/mL each time.
Turning to 5145_B14 (PGT-127) (antibody), the IC50, pseudovirus neutralization in [12] is above 50 µg/mL; in assay [13], above 50 µg/mL; in [14], 0.017 µg/mL; in [16], above 50 µg/mL; in assay [17] it was 0.01 µg/mL; in [18], above 50 µg/mL. In addition, the IC50, pseudovirus neutralization in assay [26] was 0.014 µg/mL. Moreover, the Fold IC50 increase relative to wild-type is above 500 fold in [19] and above 250 fold in assay [27]. Further, the IC50 (µg/mL), pseudovirus neutralization in [20] is 0.021 µg/mL; in assay [23], above 50 µg/mL.
For 5136_H01 (PGT-131) (antibody), the IC50 (µg/mL), pseudovirus neutralization in assay [28] is above 50 µg/mL; in [31], above 50 µg/mL; in [32] it was 0.114 µg/mL; in [33], above 50 µg/mL; in assay [34], 0.041 µg/mL; in assay [35], above 50 µg/mL. The IC50, pseudovirus neutralization in assay [29] is 0.03 µg/mL; in assay [30], above 50 µg/mL; in [36], 0.019 µg/mL; in assay [37] it was 0.143 µg/mL. Also, the Fold IC50 increase relative to wild-type in assay [27] is above 170 fold.
As to 4E10 (antibody), the IC50 (µg/ml), pseudovirus neutralization in [1] was 0.45 µg/mL; in assay [3] it was 2.02 µg/mL; in assay [4], 6.53 µg/mL; in [5], 5.76 µg/mL; in assay [9], 5.94 µg/mL; in [10] it was 15.1 µg/mL. The same substance registered an IC50 (µg/ml), pseudovirus neutralization in assay [11] of 1.14 µg/mL. In addition, the IC50, pseudovirus neutralization is 5.38 µg/mL in assay [2], 7.46 µg/mL in assay [6], 15.4 µg/mL in assay [7] and 3.9 µg/mL in assay [8].
Consider 1443_C16 (PG16) (TCN-116) (antibody), for which the IC50 (µg/ml), pseudovirus neutralization was 0.04 µg/mL in [1]; 0.02 µg/mL in [3]; 1.21 µg/mL in [4]; 0.4 µg/mL in [5]; 2.65 µg/mL in assay [9]; above 50 µg/mL in assay [10]. Also, the IC50 (µg/ml), pseudovirus neutralization in assay [11] was 0.02 µg/mL. Also, the IC50, pseudovirus neutralization is 0.11 µg/mL in [2], above 50 µg/mL in [6], 0.02 µg/mL in assay [7] and 0.004 µg/mL in [8].
For the substance 5114_A19 (PGT-128) (antibody), the IC50 (µg/mL), pseudovirus neutralization in assay [28] came out at 0.051 µg/mL; in [31], 11.7 µg/mL; in [32] it was 0.027 µg/mL; in assay [33], 0.277 µg/mL; in [34] it was 0.01 µg/mL; in assay [35] it was 0.067 µg/mL. Besides, the IC50, pseudovirus neutralization in assay [29] stood at 0.004 µg/mL; in assay [30], 0.025 µg/mL; in assay [36], 0.009 µg/mL; in assay [37], 0.026 µg/mL. For the same substance, the Fold IC50 increase relative to wild-type in [27] was 10.7 fold.
For the substance 2F5 (antibody), the IC50 (µg/ml), pseudovirus neutralization was 0.07 µg/mL in assay [1]; above 50 µg/mL in [3]; above 50 µg/mL in assay [4]; above 50 µg/mL in assay [5]; 7.37 µg/mL in [9]; above 50 µg/mL in assay [10]. The IC50 (µg/ml), pseudovirus neutralization in assay [11] turned out to be 0.6 µg/mL. Besides, the IC50, pseudovirus neutralization was found to be 2.12 µg/mL in [2], 8.61 µg/mL in assay [6], 9.85 µg/mL in assay [7] and 4.05 µg/mL in [8].
Take 5343_B08 (PGT-135) (antibody): the IC50 (µg/mL), pseudovirus neutralization in assay [28] was above 50 µg/mL; in assay [31], 7.79 µg/mL; in assay [32] it was 0.211 µg/mL; in assay [33], above 50 µg/mL; in assay [34] it was 0.068 µg/mL; in [35], above 50 µg/mL. The IC50, pseudovirus neutralization in assay [29] is above 50 µg/mL; in assay [30], above 50 µg/mL; in assay [36], 17.9 µg/mL; in assay [37] it was 0.051 µg/mL. Besides, the IC50 (ug/mL), pseudovirus neutralization in assay [15] was above 10 µg/mL; in assay [21], 0.0433 µg/mL. The Fold IC50 increase relative to wild-type in assay [19] is above 30 fold.

The values are drawn from US20240132578A1.
